Assay results: patent publication US20160235855A1, “STABLE AQUEOUS PARENTERAL PHARMACEUTICAL COMPOSITIONS OF INSULINOTROPIC PEPTIDES” (SHANGHAI BENEMAE PHARMACEUTICAL CORPORATION, priority 2013, published 2016)
“Also recorded” adds a separate entry of the source.

Columns and labels:
[1] = Observation of appearance with the naked eye (physical stability); assay type: physicochemical
Excerpt: Each buffer was also designed to have 4 salt concentrations.
If there was evident precipitation or turbidity, no further determination would be carried out. If the samples had no abnormal phenomena observable with the naked eye, the samples were taken and subjected to determination of absorption values at 360 nm and HPLC detection, wherein the former investigated the physical stability, and the latter investigated the chemical stability.
The solutions were mixed uniformly, filtered through a 0.22 μm filter membrane, dispensed into 2 mL Penicillin bottles, and placed at different temperatures for investigation. A series of sampling time points were arranged. After sampling, the samples were firstly observed with the naked eye for appearance.
The solutions were adjusted to pH 3.5-4.0, mixed uniformly, filtered through a 0.22 μm filter membrane, dispensed into 2 mL Penicillin bottles, and placed at different temperatures for investigation. A series of sampling time points were arranged. The samples were firstly observed with the naked eye for appearance. If no evident turbidity or gelatination was occurred, the sample was considered as qualified as for physical stability, and then subjected to HPLC detection to analyze the chemical stability.

[2] = Thioflavine T fluorescence value (gelatination, physical stability); assay type: physicochemical; conditions: 35 days
Description: A monitoring method for physical stability of the pH value was the fluorescence value, that is, thioflavine T was added into the sample at a final concentration of 5 μmol/L, then the fluorescence absorption value was determined (at an excitation wavelength of 435 nm, and an emission wavelength of 485 nm). The higher the absorption value is, the severer the gelatination phenomena of the sample is, and the poorer the physical stability is.

[3] = Long-term stability of GLP-1 formulations by HPLC; assay type: physicochemical
Description: The GLP-1 purity was determined by comparing the GLP-1 peak area with the total peak area.

[4] = WO00/37098, cited from earlier work

## Glucagon-like peptide 1 [GLP-1]
[1]; 20 mmol/L NaAC-HAC pH 3.0, NaCl 20 mmol/L
  Situations of samples after preparation: Clear and transparent
[1]; 20 mmol/L NaAC-HAC pH 3.0, NaCl 150 mmol/L
  Situations of samples after preparation: Clear and transparent
[1]; 20 mmol/L NaAC-HAC pH 3.0, NaCl 500 mmol/L
  Situations of samples after preparation: Clear and transparent
[1]; 20 mmol/L NaAC-HAC pH 3.5, NaCl 0 mmol/L
  Situations of samples after preparation: Clear and transparent
[1]; 20 mmol/L NaAC-HAC pH 3.5, NaCl 20 mmol/L
  Situations of samples after preparation: Clear and transparent
[1]; 20 mmol/L NaAC-HAC pH 3.5, NaCl 150 mmol/L
  Situations of samples after preparation: Clear and transparent
[1]; 20 mmol/L NaAC-HAC pH 3.5, NaCl 500 mmol/L
  Situations of samples after preparation: Turbid
[1]; 20 mmol/L NaAC-HAC pH 4.0, NaCl 0 mmol/L
  Situations of samples after preparation: Clear and transparent
[1]; 20 mmol/L NaAC-HAC pH 4.0, NaCl 20 mmol/L
  Situations of samples after preparation: Clear and transparent
[1]; 20 mmol/L NaAC-HAC pH 4.0, NaCl 150 mmol/L
  Situations of samples after preparation: Clear and transparent
[1]; 20 mmol/L NaAC-HAC pH 4.0, NaCl 500 mmol/L
  Situations of samples after preparation: Turbid
[1]; 20 mmol/L NaAC-HAC pH 4.5, NaCl 0 mmol/L
  Situations of samples after preparation: Difficult to filter
[1]; 20 mmol/L NaAC-HAC pH 4.5, NaCl 20 mmol/L
  Situations of samples after preparation: Difficult to filter
[1]; 20 mmol/L NaAC-HAC pH 4.5, NaCl 150 mmol/L
  Situations of samples after preparation: Difficult to filter
[1]; 20 mmol/L NaAC-HAC pH 4.5, NaCl 500 mmol/L
  Situations of samples after preparation: Difficult to filter,; also recorded: turbid
[1]; 20 mmol/L NaAC-HAC pH 5.0, NaCl 0, 20, 150, 500 mmol/L
  Situations of samples after preparation: Turbid or precipitated
[1]; 20 mmol/L citrate sodium-citric acid pH 5.5, NaCl 0, 20, 150, 500 mmol/L
  Situations of samples after preparation: Turbid or precipitated
[1]; 20 mmol/L citrate sodium-citric acid pH 6.0, NaCl 0 mmol/L
  Situations of samples after preparation: Precipitate sticking
[1]; 20 mmol/L citrate sodium-citric acid pH 6.0, NaCl 20 mmol/L
  Situations of samples after preparation: Precipitate sticking
[1]; 20 mmol/L citrate sodium-citric acid pH 6.0, NaCl 150 mmol/L
  Situations of samples after preparation: Precipitate sticking
[1]; 20 mmol/L citrate sodium-citric acid pH 6.0, NaCl 500 mmol/L
  Situations of samples after preparation: Precipitate sticking
[1]; 20 mmol/L citrate sodium-citric acid pH 6.5, NaCl 0 mmol/L
  Situations of samples after preparation: Turbid
[1]; 20 mmol/L citrate sodium-citric acid pH 6.5, NaCl 20 mmol/L
  Situations of samples after preparation: Turbid
[1]; 20 mmol/L citrate sodium-citric acid pH 6.5, NaCl 150 mmol/L
  Situations of samples after preparation: Turbid
[1]; 20 mmol/L citrate sodium-citric acid pH 6.5, NaCl 500 mmol/L
  Situations of samples after preparation: Turbid
[1]; pH 3.0
  Appearance of the sample: no turbidity or precipitation
[1]; pH 3.5 and pH 4.0, 0.5 M NaCl
  Appearance of the sample: turbidity
[1]; pH 4.0, NaCl 29.22 mg/mL
  Appearance of the sample (no determination carried out): Samples became turbid after formulation.
[1]; pH 4.5
  Appearance of the sample prepared: clear and transparent
[1]; pH 4.5, NaCl 29.22 mg/mL
  Appearance of the sample (no determination carried out): Samples became turbid after formulation.
[1]; pH 4.5, high salt concentration
  Appearance after formulation and heating treatment: turbidity
[1]; pH 5.0 to 6.5
  Appearance while the GLP-1 sample was prepared: turbidity or precipitation
[1]; pH 6.5, NaCl 0, 1.17, 8.77, 29.22 mg/mL
  Appearance of the sample (no determination carried out): Turbidity was generated after formulation and
[1]; pH value between about 4.5 and 6.5
  Appearance: turbidity or precipitation
[2]; pH 3.6, NaCl below 20 mmol/L, 35° C.
  Fluorescence value: 9.95
[2]; pH 3.7, NaCl below 20 mmol/L, 25° C.
  Fluorescence value: 9.11
[2]; pH 3.7, NaCl below 20 mmol/L, 35° C.
  Fluorescence value: 14.55
[2]; pH 3.8, NaCl below 20 mmol/L, 25° C.
  Fluorescence value: 11.01
[2]; pH 3.8, NaCl below 20 mmol/L, 35° C.
  Fluorescence value: 31.58
[2]; pH 3.9, NaCl below 20 mmol/L, 25° C.
  Fluorescence value: 26.46
[2]; pH 3.9, NaCl below 20 mmol/L, 35° C.
  Fluorescence value: 78.27
[2]; pH 4.0, NaCl below 20 mmol/L, 25° C.
  Fluorescence value: 59.32
[2]; pH 4.0, NaCl below 20 mmol/L, 35° C.
  Fluorescence value: 113.18
[2]; pH 4.1, NaCl below 20 mmol/L, 25° C.
  Fluorescence value: 139.48
[2]; pH 4.1, NaCl below 20 mmol/L, 35° C.
  Fluorescence value: 157.00
[3]; 2 to 8° C., composition pH about 3.5 to 5.0
  storage duration: ≥ 2 years
[3]; 4° C., GLP-1 concentration up to 2 mg/ml, preservative added
  storage duration: 2 years
[4]; between pH 6.8 and 7.5
  physical stability: poor
[4]; pH value greater than 8.8
  chemical stability: reduced
[4]; pH value less than 8.0 after the addition of a preservative
  appearance of the formulation: turbid
